In patent US20200087416A1:

B1: Lodelcizumab (antibody, INN chains, looked up, V domains shown)
VH: QVQLVQSGAEVKKPGASVKVSCKASGYTFSTMYMSWVRQAPGQGLEWMGRIDPANEHTNYAQKFQGRVTMTRDTSISTAYMELSRLTSDDTAVYYCARSYYYYNMDYWGQGTLVTVSS
VL: QIVLTQSPATLSVSPGERATLSCRASQSVSYMHWYQQKPGQAPRLLIYGVFRRATGIPDRFSGSGSGTDFTLTIGRLEPEDFAVYYCLQWSSDPPTFGQGTKLEIK
B2: Lodelcizumab Fab (Fab, INN chains, looked up, V domains shown)
VH: B1 VH
VL: B1 VL
modifications: Fab
B3: Bococizumab Fab (Fab, INN chains, looked up, V domains shown)
VH: QVQLVQSGAEVKKPGASVKVSCKASGYTFTSYYMHWVRQAPGQGLEWMGEISPFGGRTNYNEKFKSRVTMTRDTSTSTVYMELSSLRSEDTAVYYCARERPLYASDLWGQGTTVTVSS
VL: DIQMTQSPSSLSASVGDRVTITCRASQGISSALAWYQQKPGKAPKLLIYSASYRYTGVPSRFSGSGSGTDFTFTISSLQPEDIATYYCQQRYSLWRTFGQGTKLEIK
modifications: Fab

Assays:
[1] = target: cynomolgus PCSK-9 (cynomolgus); assay: BLI (ForteBio), IgG on AHQ sensor, 100 nM antigen
[2] = target: cynomolgus PCSK-9 (cynomolgus); assay: MSD-SET, Fab with biotin-PCSK9 in solution, IgG on plate, pH 7.4
[3] = target: human PCSK9 (PCSK9 antigen, SEQ ID NO. 53) (human); assay: MSD-SET, Fab with biotin-PCSK9 in solution, IgG on plate, pH 6.0
[4] = target: human PCSK9 (PCSK9 antigen, SEQ ID NO. 53) (human); assay: MSD-SET, Fab with biotin-PCSK9 in solution, IgG on plate, pH 7.4
[5] = target: murine PCSK-9 (murine) (UniProt Q80W65); assay: as above

Row | Binder | Kd [1] [nM] | Kd [2] [nM] | Kd [3] [nM] | Kd [4] [nM] | Kd [5] [nM]
1 | B1 | 2.34 |  |  |  | 
2 | B2 |  | 0.1 |  |  | 
3 | B3 |  | 0.026 | 0.038 | 0.021 | 0.065
